The target in assay [1] is T1, mouse CD73 (mouse, UniProt Q61503 29-549, limits assumed).
T1 construct: Only named in a sentence on cross-reactivity
T1 sequence (looked up): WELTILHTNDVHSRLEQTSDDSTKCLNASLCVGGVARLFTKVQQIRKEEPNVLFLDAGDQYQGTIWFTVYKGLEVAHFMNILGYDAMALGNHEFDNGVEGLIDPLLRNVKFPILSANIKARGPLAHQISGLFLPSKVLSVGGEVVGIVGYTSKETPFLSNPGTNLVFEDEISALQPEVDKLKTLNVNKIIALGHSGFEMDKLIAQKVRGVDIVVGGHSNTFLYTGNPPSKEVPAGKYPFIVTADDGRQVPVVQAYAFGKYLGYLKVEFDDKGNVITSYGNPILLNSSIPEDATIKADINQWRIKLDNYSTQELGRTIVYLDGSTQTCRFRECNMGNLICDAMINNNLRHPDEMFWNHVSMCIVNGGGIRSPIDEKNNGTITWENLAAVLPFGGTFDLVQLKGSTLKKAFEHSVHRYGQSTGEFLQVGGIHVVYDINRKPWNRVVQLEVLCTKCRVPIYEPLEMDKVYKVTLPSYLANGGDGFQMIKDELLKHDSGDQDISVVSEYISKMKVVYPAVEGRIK
The assay is described as follows: not described (statement in the methods of Example 22).

Assay [2] addresses T2, human CD73 expressed on cells (human, UniProt P21589 27-549).
T2 construct: also called 5'-NT; human CD73 on CHO-S cells
T2 sequence: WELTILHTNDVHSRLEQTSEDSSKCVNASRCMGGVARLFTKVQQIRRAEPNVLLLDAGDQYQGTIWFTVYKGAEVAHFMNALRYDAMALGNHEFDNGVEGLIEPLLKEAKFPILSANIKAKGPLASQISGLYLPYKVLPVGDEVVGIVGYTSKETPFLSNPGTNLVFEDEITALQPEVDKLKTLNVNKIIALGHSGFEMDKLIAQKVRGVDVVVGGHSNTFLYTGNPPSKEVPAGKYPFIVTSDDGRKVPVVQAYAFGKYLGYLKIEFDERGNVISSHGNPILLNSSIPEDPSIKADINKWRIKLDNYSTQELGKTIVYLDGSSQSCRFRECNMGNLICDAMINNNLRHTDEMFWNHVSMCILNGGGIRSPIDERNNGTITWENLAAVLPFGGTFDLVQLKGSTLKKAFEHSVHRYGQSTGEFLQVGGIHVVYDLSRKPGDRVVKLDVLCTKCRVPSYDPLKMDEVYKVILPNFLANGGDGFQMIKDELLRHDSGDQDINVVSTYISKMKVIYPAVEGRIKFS
The assay is described as follows: flow cytometry on CHO-S cells transiently expressing human CD73, AF647 anti-human IgG (H+L) secondary, GeoMean. On the procedure:
The anti-CD73 antibodies were incubated with the hamster CHO-S cell line transiently expressing human or cynomolgus CD73 for 30 minutes at 4° C. The cells were washed twice and subsequently incubated for an additional 20 minutes with AF647-conjugated secondary anti-human IgG (H+L) antibody. After the washing step, antibody binding was detected using the high-throughput flow cytometer iQue Screener PLUS (Sartorius) measuring the GeoMean of AF647 signal in each well. Every concentration was assayed in triplicate and a 12-point titration curve was generated for each antibody.

B1: antibody 21127 (antibody, human IgG1, kappa, L234A L235A, V domains shown)
VH: EVQLVESGGGLVQPGRSLRLSCAASGFTFDDFAMHWVRQAPGKGLEWVSGISWNSGNIGYADSVKGRFTISRDNAKNSLYLQMNSLRAEDTALYYCAKDKSGSPYYYYGMDVWGQGTMVTVSS
VL: DIQMTQSPSSVSASVGDRVTITCRATQGISRRLAWYQQKPGKAPKLLIYAASSLQSGVPSRFSGSGSGTDFTLTISSLQPEDFATYYCQQANSFPLTFGGGTKVEIKR
notes: Fully human IgG1-LALA (L234A/L235A), kappa
As for B1, the binding result in assay [1] was “no binding”. Also, the “EC50 (read off the curve)” value in assay [2] was approximately 5 ng/mL.

The record behind these values is patent publication US20210070876A1 (LES LABORATOIRES SERVIER, published 2021).
